Measured values taken from patent US20250163117A1 (CURE GENETICS, published 2025).

Columns and labels:
[1] = molecular target: T1, human intermediate-affinity IL-2 receptor IL-2Rβγ on cells (human, UniProt P14784 27-551; P31785 23-369); experiment: cell-based or functional assay
T1 sequence (looked up) 1: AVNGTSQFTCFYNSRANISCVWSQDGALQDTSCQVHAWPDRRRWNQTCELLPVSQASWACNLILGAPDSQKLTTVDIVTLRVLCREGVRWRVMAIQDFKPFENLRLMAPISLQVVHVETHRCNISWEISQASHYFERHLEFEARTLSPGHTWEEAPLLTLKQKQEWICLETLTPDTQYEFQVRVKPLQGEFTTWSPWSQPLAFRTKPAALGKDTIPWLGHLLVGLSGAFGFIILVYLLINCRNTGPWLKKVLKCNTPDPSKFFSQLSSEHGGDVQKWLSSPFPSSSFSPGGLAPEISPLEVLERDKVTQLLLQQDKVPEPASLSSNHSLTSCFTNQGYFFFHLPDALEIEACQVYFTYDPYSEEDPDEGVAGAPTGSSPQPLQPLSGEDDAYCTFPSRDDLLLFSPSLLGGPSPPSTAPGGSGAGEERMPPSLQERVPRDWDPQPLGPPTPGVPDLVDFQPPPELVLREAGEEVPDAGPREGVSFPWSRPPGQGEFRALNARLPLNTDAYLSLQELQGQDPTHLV
T1 sequence (looked up) 2: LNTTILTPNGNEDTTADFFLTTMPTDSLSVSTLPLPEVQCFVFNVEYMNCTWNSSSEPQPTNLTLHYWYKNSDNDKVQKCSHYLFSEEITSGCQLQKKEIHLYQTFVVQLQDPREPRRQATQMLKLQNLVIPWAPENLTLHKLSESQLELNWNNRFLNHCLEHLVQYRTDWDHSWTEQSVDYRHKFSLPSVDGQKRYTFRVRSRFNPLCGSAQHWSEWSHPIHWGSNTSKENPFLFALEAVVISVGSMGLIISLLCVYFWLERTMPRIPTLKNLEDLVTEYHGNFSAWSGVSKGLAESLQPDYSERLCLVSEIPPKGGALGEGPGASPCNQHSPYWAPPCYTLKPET

[2] = molecular target: T2, human high-affinity IL-2 receptor IL-2Rαβγ on cells (human, UniProt P01589 22-272; P14784 27-551; P31785 23-369); experiment: cell-based or functional assay
T2 sequence (looked up) 1: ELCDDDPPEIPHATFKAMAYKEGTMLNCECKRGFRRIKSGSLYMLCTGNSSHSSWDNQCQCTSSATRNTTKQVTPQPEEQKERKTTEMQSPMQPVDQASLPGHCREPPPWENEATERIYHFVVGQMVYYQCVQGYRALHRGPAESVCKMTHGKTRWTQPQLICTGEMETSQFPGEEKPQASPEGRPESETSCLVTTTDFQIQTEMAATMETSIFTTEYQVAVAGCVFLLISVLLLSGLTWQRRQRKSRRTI
T2 sequence (looked up) 2: T1 sequence (looked up) 1
T2 sequence (looked up) 3: T1 sequence (looked up) 2

[3] = molecular target: T3, mouse high-affinity IL-2 receptor IL-2Rαβγ on cells (mouse, UniProt P01590 22-268; P16297 27-539; P34902 23-369); experiment: cell-based or functional assay
T3 sequence (looked up) 1: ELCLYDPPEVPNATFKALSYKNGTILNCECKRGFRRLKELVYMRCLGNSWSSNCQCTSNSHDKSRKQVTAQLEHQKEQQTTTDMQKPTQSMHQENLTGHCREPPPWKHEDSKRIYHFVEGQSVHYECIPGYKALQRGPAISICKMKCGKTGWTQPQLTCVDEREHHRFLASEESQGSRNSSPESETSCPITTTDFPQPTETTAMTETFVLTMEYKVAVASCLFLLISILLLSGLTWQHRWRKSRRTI
T3 sequence (looked up) 2: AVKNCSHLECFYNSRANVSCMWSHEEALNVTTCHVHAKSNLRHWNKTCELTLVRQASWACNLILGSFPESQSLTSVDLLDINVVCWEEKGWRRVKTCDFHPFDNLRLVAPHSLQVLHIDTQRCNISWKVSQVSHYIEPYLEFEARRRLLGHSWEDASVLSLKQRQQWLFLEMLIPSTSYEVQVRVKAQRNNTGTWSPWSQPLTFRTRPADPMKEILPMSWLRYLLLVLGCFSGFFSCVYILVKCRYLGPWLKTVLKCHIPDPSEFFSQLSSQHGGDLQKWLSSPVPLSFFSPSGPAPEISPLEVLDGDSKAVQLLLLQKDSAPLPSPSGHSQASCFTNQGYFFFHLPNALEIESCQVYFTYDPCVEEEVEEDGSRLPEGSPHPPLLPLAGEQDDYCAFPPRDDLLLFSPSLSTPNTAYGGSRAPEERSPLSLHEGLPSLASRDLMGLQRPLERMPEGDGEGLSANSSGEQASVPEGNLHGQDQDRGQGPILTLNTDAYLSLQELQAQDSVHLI
T3 sequence (looked up) 3: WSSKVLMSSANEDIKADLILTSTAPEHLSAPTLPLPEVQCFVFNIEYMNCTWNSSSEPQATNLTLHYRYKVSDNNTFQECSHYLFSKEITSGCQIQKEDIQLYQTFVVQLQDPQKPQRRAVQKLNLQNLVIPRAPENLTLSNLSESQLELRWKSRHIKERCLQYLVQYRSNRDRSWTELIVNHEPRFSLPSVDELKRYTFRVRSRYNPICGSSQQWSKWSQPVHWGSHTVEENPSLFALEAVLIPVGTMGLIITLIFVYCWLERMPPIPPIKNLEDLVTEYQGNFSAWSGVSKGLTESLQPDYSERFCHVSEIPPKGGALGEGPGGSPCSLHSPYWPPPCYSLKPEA

[4] = molecular target: T4, mouse intermediate-affinity IL-2 receptor IL-2Rβγ on cells (mouse, UniProt P16297 27-539; P34902 23-369); experiment: cell-based or functional assay
T4 sequence (looked up) 1: T3 sequence (looked up) 2
T4 sequence (looked up) 2: T3 sequence (looked up) 3

[5] = molecular target: T5, Human IL-2RG (common γ receptor/CD132) protein (human, UniProt P31785 23-262, limits assumed); experiment: SPR (Biacore, receptor immobilised on CM5 chip, IL-2 as analyte)
T5 construct: Receptor protein used as SPR ligand
T5 sequence (looked up): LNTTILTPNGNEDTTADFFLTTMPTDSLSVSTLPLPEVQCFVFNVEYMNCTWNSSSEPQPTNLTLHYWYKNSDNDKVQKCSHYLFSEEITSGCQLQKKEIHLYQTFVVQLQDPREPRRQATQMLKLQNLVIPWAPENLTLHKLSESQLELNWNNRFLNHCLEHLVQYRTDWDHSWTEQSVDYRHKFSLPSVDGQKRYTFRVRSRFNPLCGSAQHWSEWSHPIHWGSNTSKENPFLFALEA
Experimental: The human IL-2 receptors used in this study included IL-2Rα/CD25, IL-2Rβ/CD122, common γ receptor/CD132, IL-2Rβ&IL-2Rγ heterodimer protein, and IL-2Rβ&IL-2Rα&IL-2Rγ protein. The IL-2 receptor proteins were immobilized on a Biacore™ sensor chip CM5 according to manufacturer's protocol. […] The resulting sensorgrams were analyzed with the native instrument software to calculate the binding affinities.

B1: CP-trIL-2 012 (ligand)
chain: PTSSSTKKTQLQLEHLLLDLQMILNGINNYKNPLRPRDLISNINVIVLELKGSETTELKHLQSLEEELKDLEEVLNLAQSKNFHTIVEFLNRWITFSQSIISTLT
notes: H1-H3-H2-H4; loops 1 and 2 removed; de-Ala1, C58S, C125S, P65D
% pSTAT5 in human PBMC at High IL-2v concentration (25 nM per paragraph 254); western blot, pSTAT5/STAT5 normalised to 001 High [1]: 66.9%
% pSTAT5 in human PBMC at Low IL-2v concentration (2.5 nM per paragraph 254); western blot, pSTAT5/STAT5 normalised to 001 High [2]: 10.9%
% pSTAT5 in mouse splenocytes at Low IL-2v concentration (2.5 nM per paragraph 254); western blot, pSTAT5/STAT5 normalised to 001 High [3]: 22.8%
% pSTAT5 in mouse splenocytes at High IL-2v concentration (25 nM per paragraph 254); western blot, pSTAT5/STAT5 normalised to 001 High [4]: 126%
binding result [5]: no binding (tested: 0.977-500 nM)
